In the DeepSol protein solubility set:

Experiment: soluble on expression in E. coli; label from the status in PepcDB or PDB records

Soluble on expression in E. coli, not soluble:
MGSDKIHHHHHHMTQQVINSTSKNHLSPLENQKRYRVVLVHPSAGVNWSGGSEIFAIELARHLNSYFNVELLSGADCGSFSFPSGGISRTQAFNIVRHPLISKLLSRFASHPEIVIEHLSNFFPCAIQLLTKSADLIFPCNDYGGMAMAAFVRAIKGTPILFTEHVGLLGGGKSLTRNLRFHPDQLVVFSEAMAEFVRSVQPQQKVSIIPNGVDINRFTPVGNYINFGLPKPIVLCVASLKRHSHKRIGLAMEAVARLPQISLLLCGDGIDRDYFQAKGDELLGKERFKIQSFPYEQMPTVYRSADVFTLPSIDEPFGLAYVEAMASGLPVIATDDEMRRQIVGDAGRLCDVTNPDIYAAAIREILTQDWQVRARQKALGFSWENIALRYRELILKTIQGDQQNH, MGSDKIHHHHHHMTQRTFTPPWWARNPHVQTILPVLTKVNKPALTRQRLELEDGDFIDLDWLAKPTQTAPTQIEPIVVLVHGLEGSADSHYARRLLTLLDDHKVAALVHHHRSCSGVTNRLARSYHSGDTQDLHTTLSQLRRDYPDSPLLAVGYSLGGNVLTKYMGEHGSDSLVDRAVVISAPLQLGACAKRLRHGFSKVYQSYLIKQLQQKVRDKLALPDLSAQMPVTQAEVESLTTFHLFDDRVTAPLHGFDGVEDYYRRASGLPYLSQVAKPTLVIHAKDDPFMTDEVIPTQEALSPQVTYELHPQGGHVGFIDGGHPFKPRYYLEQRIVHFLLEA, MGSDKIHHHHHHMTREKSSYAVQTVEKALDILETLTDESRHATLPYLAEKLDLSRNKAFRLLATLESKGLVERDETSGVYRLGISSVELAQRLLNSTSLIRHAHPIMERLARKHDEAVYIAVLKGDEVLFLDMVDCEQAIKTAPLVGRRFPFFSNAAGKAIRALESTDLLDRFLKKRGRNGGPFDPAALQQELKAVREHGVAVDFDGLGEGIVSVAVAVRDYAGKVIGALTMLGPSFRMMASRMENEIIPSLREGAEILSMKFGYAKL, MGSDKIHHHHHHMTSARRMLIDANTTPFYHVINRCVRRAFLCGEDKLTGRSYEHRRGWIVDKIKALSAIFCIDICAYAVMSNHYHLVLKIDVEKAKSLTQKDIISRWCQITKGHAIATKYMNGDALIEGERMLLDALIAEWHERLSSISWFMRCLNEEIARKANREDECKGAFWEGRFKSQALLDEQALLACMMYVDLNPIRAGIADSLQSSDFTSIQERMNSLNTHSIAPKLAKITVDNTLSIPHKSLAKFEGATHIHQQTGIPFHFADYLELIDWTGRAIRHDKKGFIDNLRPKLLNELGIASDAWLLSAKEFRRQYSGVSGRWDAMCAFKHKQGGKWCRGKSHSQALHPEQINGLTLR, MGSDKIHHHHHHMTSILPLPDPQPSDATNTDTSSLNWEEELDSAIFSFEDIQAELNYKQAQSALRNLVGNIDLSSQEKAGLESEIADLETMLGKLDSMVVQIAAFGMVGRGKSSLLNALVGESVFETGPLHGVTRAAQRVNWRISEEAIGETERALRVTLPSVGRSQVELIDTPGLDEIDGETRTALAEQIAKQADLILFVISGDMTKIEHEALSQLREAGKPIILVFNKVDQYPEADRMAIYQKIRDERVRELLTPLEIVMAAASPLVKTAVRRPDGSRGVQVRTGNAQVAELQVKILEILQREGKALVALNTMLFADNVNEQLVQRKLMIREQNANQLIWKAVMTKAVAIALNPVTVVDILSSIVIDVSLILGLSKLYGIPMTEAGAVQLLQKIALSMGGIGVSELLANLGLSGLKTLLGISATATAGVAIGPYISVALTQAGVAGVSSYAIGQVTTVYLANGATWGPDGPKAVINRILSTLDENSILNRIKDELQVKLRRE, MGSDKIHHHHHHMTSYVLTVSCPSKRGIVAALSGYLAEMGCNIVDSSQFDDLDTDRFFMRVSFISEQGASREKIEAGLAPIVDNFQMEIGLYDSTERVKVLLMVSRFGHCLNDLLYRWKIGALPIDIVGVVSNHFDYQKVVVNHDIPFHHIKVTKDNKPQAEAQLMELVQQTGTELIVLARYMQVLSDAMCQKMSGKIINIHHSFLPSFKGANPYKQAFERGVKLIGATAHYVTADLDEGPIIEQDVARVTHAQNAEDYVSIGRDVESQVLARAIHAHIHHRTFINGNKSVVFPASPGSYASERMG, MGSDKIHHHHHHMTTLSDVAKEANVSKMTVSRVINHPEQVTPELRAMVEKAMEKLNYHPNSIAQALVNNRSNVVKFVTLEDIDTTEPYYTNLLFGFARGLNAKQYALQLVVDPTRIEKGRADGYLITGARNEDYDMFDKLDKPFVLFGENHRGYDFVDTDNQTAEKMATQYALDRLYKHIIFIGIDIKEPFEYSREAGYINTLQQHRLIPQIYRVSNHSHAAQKVIHEHFKEFKKDTCFICASDRIAVGVVRQLQDERARIPEDFGVIGFDGVFLDQVSNPKLTTIKQPIFEMGKMLAKMLLQKIDQSGSPQGELMVKPQLIRRETTR, MGSDKIHHHHHHMTVSQVSTGTGLGTRHVAFDWGGVFTVGTFDGRSTQNVAERSGVPVEKVRESYFRHIRQLEVGAWTLPQFWETVQQETGMTLPYADFEALYLGSIHDNAPMYTTLAALPRSVRVGLLSNNYPVVSEHLGRDPRFARFDALVFSNEIGHKKPAPEAFAALEQKMGLPAAQVAFVDDVQENIDAAGAFGFHGILYHHDAHERFEQELKEWLRG, MGSDKIHHHHHHMTWHEVNDVIVITLPEIFDMNANLGYLTREKNECMYEIENNIITKVIAIGEIRSLVQVSVINNKQMIVQFLNDSRPVEQWKREEIVKYIHEWFDLDNDLTPFYEMAKADPLLKMPARKFYGLRVIGIPDLFEALCWGVLGQQINLAFAYSLKKQFVEAFGDSIEWNGKKYWVFPPYERIARLTPTDLADIKMTVKKSEYIIGIARLMASGELSREKLMKMNFKDAEKNLIKIRGIGPWTANYVLMRCLRFPTAFPIDDVGLIHSIKILRNMNRKPTKDEILEISVPWKEWQSYATFYLWRVLY, MGSDKIHHHHHHMTWKSVNFDWNHIRAFLVTAEEGTLSAAAKALGLTQPTLSRQVSALETELCITLFERVGQRLVLTSSGLKLLEHARGMGDAALEFSLAVTGQSQKIEGSVIVSAGELTAAYMLPKIISKLRREEPGIDIEVVVTNEASDLKRREADIAIRSFHPTQNDLIAKKIGEEVIWLYGTPEYLDQLPTIPSFSELKDIQIIGFDRSNSLTDVLNKQGWQLSKKNFSLITSFQLLQLALCKEGQGVIFYPEQMGDQEPNLVRAYEHLGPVMKLPVWLVCHQELRTSLRVRRVFDFIATELSDNFY, MGSDKIHHHHHHMTYIALGMAAIGRPHYINIKTIDSPKDLTKAELHAHATAVLDAAYAMGIRHIDTAPGYGIAEEILIDWLRRSGHEDMTVSTKWGYTYTANFEKNPLQHEVKEHSLHVLQQQWLYSRQLLPPLNMYQIHSATSDSGVLNNQGVLDKLFELKEQFGIEIGLTTSGLTQNATIQQALKITNQGKPLFTIFQVTYNVFEQSIADSVALLKNQGARIIIKEGLANGRIFTCADFPQYAPAYALLERLAGKYHVGVDAVALRFCIDALRPLYVLSGAATIVQLKENLLAETFTLQSEELEELKSIHVASEAYWNERKQLKWN

Soluble on expression in E. coli, soluble:
MGSDKIHHHHHHMTSSPTSTQESSTSWYLLLQQLIDGESLSRSQAAELMQGWLSEAVPPELSGAILTALNFKGVSADELTGMAEVLQSQSKMGTGENYSQLPITNSPFSIIDTCGTGGDGSSTFNISTAVAFVAAAYGVPVAKHGNRSASSLTGSADVLEALGVNLGASPEKVQAALQEVGITFLFAPGWHPALKAVATLRRTLRIRTVFNLLGPLVNPLRPTGQVVGLFTPKLLTTVAQALDNLGKQKAIVLHGRERLDEAGLGDLTDLAVLSDGELQLTTINPQEVGVTPAPIGALRGGDVQENAEILKAVLQGKGTQAQQDAVALNAALALQVAGAVPLLDHAQGVSVAKEILQTGTAWAKLAQLVYFLGN
